In the series the test system is Saccharomyces cerevisiae. The series can be described thus: protein stability index of tFT-peptide fusion (C-terminal peptide) (PSI (0-1 scale)); higher = more stable (slower turnover). The note with it: temperature: 30 C. Here is the method:
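MPS profiling in S. cerevisiae of the yeast C-terminome library: the last 12 aa of each annotated ORF are fused to the C-terminus of a sfGFP-mCherry timer, after a GGGS linker. Cells are FACS-sorted into 8 mCherry/sfGFP bins and deep-sequenced. PSI runs from 0 (unstable) to 1 (stable); wild type and das1Δ backgrounds, two technical replicates each.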

Setting [1] is: genetic background: das1 deletion.

± gives the standard deviation of the averaged measurements.

Consider KQLGSSHNYTVN [SKG6 C-terminal 12 aa], for which the protein stability index is, setting by setting: under setting [1], 0.695 ± 0.019; (genetic background: wild type) 0.696 ± 0.0079.
Take KQPRFQLLFEFS [TTI2 C-terminal 12 aa]: the protein stability index under setting [1] was determined as 0.687 ± 0.011 and the protein stability index (genetic background: wild type) came to 0.6511 ± 0.0017.
Regarding KQYIEPESVKPN [ABD1 C-terminal 12 aa], the protein stability index was determined as 0.6996 ± 0.0034 under setting [1] and 0.722 ± 0.051 (genetic background: wild type).
Sequence KRIDSYIDEMTT [MCO14 C-terminal 12 aa] registered a protein stability index under setting [1] of 0.723 ± 0.011 and a protein stability index (genetic background: wild type) of 0.664 ± 0.054.
Taken in the same sequence, the figures for KRLHQLDGIPHA [MEO1 C-terminal 12 aa] were 0.703 ± 0.0079 and 0.6852 ± 0.0018.
Taken in the same sequence, the figures for KRRIEEIQMLFE [RAD5 C-terminal 12 aa] were 0.7081 ± 0.0032 and 0.683 ± 0.036.
For the sequence KRSLRRNARKGL [ESC8 C-terminal 12 aa], the protein stability index under setting [1] worked out at 0.721 ± 0.0077 and the protein stability index (genetic background: wild type) stood at 0.687 ± 0.026.
Taken in the same sequence, the figures for KSALSKTLGLNK [NHA1 C-terminal 12 aa] were 0.699 ± 0.014 and 0.7038 ± 0.0048.
Take KSCGNNAGARIC [HO C-terminal 12 aa]: the protein stability index worked out at 0.7093 ± 0.00098 under setting [1] and 0.452 ± 0.022 (genetic background: wild type).
As to KSLETFRTTNTL [FBA1 C-terminal 12 aa], the protein stability index was 0.69 ± 0.011 under setting [1] and 0.7271 ± 0.0061 (genetic background: wild type).
KSPSITVNEFFH [RCN2 C-terminal 12 aa] gave a protein stability index under setting [1] of 0.698 ± 0.01 and a protein stability index (genetic background: wild type) of 0.734 ± 0.021.
With KSVPILLPQVCM [YIL059C C-terminal 12 aa], the protein stability index by setting is: under setting [1], 0.5945 ± 0.0057; (genetic background: wild type) 0.578 ± 0.0092.
For the sequence KTDKVLYKRNGY [HPA3 C-terminal 12 aa], the protein stability index is, setting by setting: under setting [1], 0.687 ± 0.02; (genetic background: wild type) 0.675 ± 0.065.
Sequence KTFKLLTNKWIH [YAR009C C-terminal 12 aa] had a protein stability index under setting [1] of 0.704 ± 0.018 and a protein stability index (genetic background: wild type) of 0.587 ± 0.014.
Taken in the same sequence, the figures for KVFDRSGIVLEK [QRI1 C-terminal 12 aa] were 0.71 ± 0.013 and 0.701 ± 0.016.
The like results for KVKCALERKPYL [ZAP1 C-terminal 12 aa] were, in that order, 0.706 ± 0.05 and 0.6754 ± 0.00096.
Taken in the same sequence, the figures for KVVTRSIVLWGV [YGL235W C-terminal 12 aa] were 0.632 ± 0.02 and 0.615 ± 0.016.
With KYFLRMVYPMKV [ESBP6 C-terminal 12 aa], the protein stability index reads like this: under setting [1], 0.4888 ± 0.0038; (genetic background: wild type) 0.404 ± 0.031.
As to LADHLMEKYLSI [TFC4 C-terminal 12 aa], the protein stability index turned out to be 0.701 ± 0.025 under setting [1] and 0.658 ± 0.01 (genetic background: wild type).
For the sequence LALNRDDPPDML [PEA2 C-terminal 12 aa], the protein stability index came to 0.6989 ± 0.0011 under setting [1] and 0.755 ± 0.13 (genetic background: wild type).
The like results for LAQQLQQDSEAS [SWC5 C-terminal 12 aa] were, in that order, 0.699 ± 0.039 and 0.701 ± 0.0092.
With LASDFIGRGYDD [WTM2 C-terminal 12 aa], the protein stability index is, setting by setting: under setting [1], 0.6962 ± 0.0068; (genetic background: wild type) 0.678 ± 0.011.
As to LATMILARMSCS [IRA1 C-terminal 12 aa], the protein stability index by setting is: under setting [1], 0.682 ± 0.023; (genetic background: wild type) 0.657 ± 0.035.
With LAYPACLACQAS [VPS69 C-terminal 12 aa], the protein stability index amounted to 0.6 ± 0.02 under setting [1] and 0.59 ± 0.011 (genetic background: wild type).
For the sequence LCHYLTPYMIIY [YOL106W C-terminal 12 aa], the protein stability index by setting is: under setting [1], 0.456 ± 0.016; (genetic background: wild type) 0.45 ± 0.011.
Taken in the same sequence, the figures for “LCILRIVGVANF [YER039C-A C-terminal 12 aa]” were 0.426 ± 0.0017 and 0.4474 ± 0.0034.
With LCSIYKALLLGP [ATF1 C-terminal 12 aa], the protein stability index reads like this: under setting [1], 0.6813 ± 0.0019; (genetic background: wild type) 0.67 ± 0.0087.
For the sequence LDAENNNKCSIM [RHB1 C-terminal 12 aa], the protein stability index under setting [1] was determined as 0.7192 ± 0.003 and the protein stability index (genetic background: wild type) was found to be 0.758 ± 0.027.
As to LDAEYYIKFASK [ERD1 C-terminal 12 aa], the protein stability index worked out at 0.6942 ± 0.0061 under setting [1] and 0.69 ± 0.024 (genetic background: wild type).
Take LDFAKRKLKKKQ [TFB2 C-terminal 12 aa]: the protein stability index turned out to be 0.714 ± 0.015 under setting [1] and 0.622 ± 0.034 (genetic background: wild type).
Turning to LDMAVIDNTTHN [SDO1 C-terminal 12 aa], the protein stability index by setting is: under setting [1], 0.712 ± 0.026; (genetic background: wild type) 0.682 ± 0.016.
Take LDNIERDANDLS [LAM4 C-terminal 12 aa]: the protein stability index under setting [1] was 0.695 ± 0.0073 and the protein stability index (genetic background: wild type) stood at 0.678 ± 0.008.
As to LDTLQTASQYLP [VID22 C-terminal 12 aa], the protein stability index under setting [1] came out at 0.7056 ± 0.0017 and the protein stability index (genetic background: wild type) came to 0.749 ± 0.079.
Taken in the same sequence, the figures for LDYALVEMDKLF [UTP13 C-terminal 12 aa] were 0.708 ± 0.033 and 0.708 ± 0.039.
Taken in the same sequence, the figures for LEELDIEEEYSD [ACL4 C-terminal 12 aa] were 0.687 ± 0.059 and 0.673 ± 0.0086.
The sequence LEHGLKVRMDEE [HIS7 C-terminal 12 aa] had a protein stability index under setting [1] of 0.7083 ± 0.0038 and a protein stability index (genetic background: wild type) of 0.72 ± 0.06.
For LELLLAADYLSI [ELC1 C-terminal 12 aa], the protein stability index by setting is: under setting [1], 0.698 ± 0.034; (genetic background: wild type) 0.682 ± 0.049.
Turning to LELVLKNKEMEN [RSA3 C-terminal 12 aa], the protein stability index by setting is: under setting [1], 0.684 ± 0.016; (genetic background: wild type) 0.706 ± 0.092.
The like results for LEQGFKVVSAKE [YCS4 C-terminal 12 aa] were, in that order, 0.697 ± 0.057 and 0.6812 ± 0.0067.
Take LEQYEKTLVHDD [GCV3 C-terminal 12 aa]: the protein stability index runs as follows: under setting [1], 0.6942 ± 0.00074; (genetic background: wild type) 0.678 ± 0.05.
LERILHEMHPPA [EOS1 C-terminal 12 aa]: the protein stability index is 0.714 ± 0.012 under setting [1] and 0.726 ± 0.025 (genetic background: wild type).
Consider LETLKKKKKRNN [MAK5 C-terminal 12 aa], for which the protein stability index under setting [1] was determined as 0.711 ± 0.014 and the protein stability index (genetic background: wild type) came out at 0.66348 ± 0.00034.
For the sequence LFFLVGLQLAIP [YGR022C C-terminal 12 aa], the protein stability index was determined as 0.324 ± 0.002 under setting [1] and 0.327 ± 0.0074 (genetic background: wild type).
“LFQPIIVKPLRS [YHR007C-A C-terminal 12 aa]”: the protein stability index is 0.599 ± 0.016 under setting [1] and 0.625 ± 0.023 (genetic background: wild type).
The like results for LFTAMRTVLFGK [CBP6 C-terminal 12 aa] were, in that order, 0.704 ± 0.0044 and 0.72 ± 0.14.
For LGYTDDEIYNRQ [SER2 C-terminal 12 aa], the protein stability index runs as follows: under setting [1], 0.706 ± 0.026; (genetic background: wild type) 0.681 ± 0.036.
In the case of LILHFVCLHFIN [OST2 C-terminal 12 aa], the protein stability index came out at 0.544 ± 0.017 under setting [1] and 0.184 ± 0.027 (genetic background: wild type).
Turning to LIRKMYYKNLKK [SSL2 C-terminal 12 aa], the protein stability index is, setting by setting: under setting [1], 0.693 ± 0.05; (genetic background: wild type) 0.757 ± 0.028.
As to LIYLNETLGTRL [IRC19 C-terminal 12 aa], the protein stability index by setting is: under setting [1], 0.705 ± 0.015; (genetic background: wild type) 0.671 ± 0.003.
Regarding LKDEKRGDNVLA [THS1 C-terminal 12 aa], the protein stability index is 0.6983 ± 0.0068 under setting [1] and 0.67 ± 0.018 (genetic background: wild type).
The sequence LKHNGQRKLAST [ANT1 C-terminal 12 aa] came in with a protein stability index under setting [1] of 0.685 ± 0.034 and a protein stability index (genetic background: wild type) of 0.701 ± 0.033.
On to LKKPRSGFHVIV [YFR006W C-terminal 12 aa], for which the protein stability index is, setting by setting: under setting [1], 0.69 ± 0.027; (genetic background: wild type) 0.6371 ± 0.0052.
Regarding LKQENAYLLIRR [RPB8 C-terminal 12 aa], the protein stability index runs as follows: under setting [1], 0.693 ± 0.0081; (genetic background: wild type) 0.68 ± 0.01.
Consider LKRTAIQFAAFS [SEC5 C-terminal 12 aa], for which the protein stability index under setting [1] was 0.6855 ± 0.0022 and the protein stability index (genetic background: wild type) turned out to be 0.6844 ± 0.0012.
The like results for LLIQEEMKLKEV [YPK9 C-terminal 12 aa] were, in that order, 0.7188 ± 0.0014 and 0.703 ± 0.022.
As for LLLPITSSLLFI [MIN4 C-terminal 12 aa], the protein stability index runs as follows: under setting [1], 0.618 ± 0.011; (genetic background: wild type) 0.62 ± 0.021.
The like results for “LLMVGVPLLFSS [YPR159C-A C-terminal 12 aa]” were, in that order, 0.6249 ± 0.00071 and 0.6282 ± 0.0051.
For LLSLLRVLKQPH [CSS1 C-terminal 12 aa], the protein stability index reads like this: under setting [1], 0.675 ± 0.023; (genetic background: wild type) 0.66 ± 0.011.
Taken in the same sequence, the figures for LMGAALAAVMLL [FIT3 C-terminal 12 aa] were 0.6841 ± 0.0054 and 0.6409 ± 0.0026.
With LMNAQSNETKLN [PTC6 C-terminal 12 aa], the protein stability index under setting [1] is 0.7111 ± 0.0056 and the protein stability index (genetic background: wild type) amounted to 0.692 ± 0.033.
Taken in the same sequence, the figures for LMPSASLQDFYG [VID27 C-terminal 12 aa] were 0.73 ± 0.014 and 0.726 ± 0.014.
On to LNFFAEETLDFE [EAT1 C-terminal 12 aa], for which the protein stability index reads like this: under setting [1], 0.734 ± 0.033; (genetic background: wild type) 0.689 ± 0.033.
The like results for LNLPWKRKKTTI [YCR101C C-terminal 12 aa] were, in that order, 0.707 ± 0.017 and 0.686 ± 0.019.
Consider LNPIRSLRYCNY [YPP1 C-terminal 12 aa], for which the protein stability index came to 0.7156 ± 0.0026 under setting [1] and 0.629 ± 0.024 (genetic background: wild type).
With LNSIDPALISKY [AFT2 C-terminal 12 aa], the protein stability index is, setting by setting: under setting [1], 0.744 ± 0.035; (genetic background: wild type) 0.741 ± 0.036.
As for LQALIIVQVMFS [YLL059C C-terminal 12 aa], the protein stability index stood at 0.128 ± 0.025 under setting [1] and 0.157 ± 0.013 (genetic background: wild type).
The like results for LQAVAVAVSTKK [FAS2 C-terminal 12 aa] were, in that order, 0.659 ± 0.01 and 0.65 ± 0.033.
For the sequence LQESKSQEKNKI [MRX19 C-terminal 12 aa], the protein stability index is 0.7135 ± 0.0016 under setting [1] and 0.782 ± 0.06 (genetic background: wild type).

These data come from the supplement of paper PMC10724198.
